Assay results as given in the supplement of paper PMC9170038.

Tested on: MS2 coat protein
Assay: apparent KD of MS2 coat protein; higher = weaker reporter binding
Settings: Eterna round: R107
Procedure, shortened: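 For every design, apparent KD is the median of normalised binding-curve fits from its clusters. The RNA switches were transcribed on-chip from Illumina sequencing clusters and titrated with SNAP-549-labelled MS2 coat protein (twofold steps, 0.7 or 1.5 nM to 3 µM; 0.8–1.5 h to 10–20 min per step). Titrations used 100 mM Tris-HCl pH 7.5, 80 mM KCl, 4 mM MgCl2, without or with constant ligand.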

[1] = input ligand: theophylline 20 uM
[2] = input ligand: tryptophan 2.4 mM
[3] = input ligand: theophylline 2 mM

UAAAACAUGAGGAUCACCCAUGUAAUUGAUACCAGAGUGAUGAUCCUCCCUUGGCAGCAAAACGCUGAUUGGAAACAAUCAGCGA [Mat - Same State Theophlline A - Mod of Eli - D25]
apparent KD of MS2 coat protein (input ligand: arginine 13.2 mM): 50.1 nM
apparent KD of MS2 coat protein [1]: 102 nM
apparent KD of MS2 coat protein [2]: 46.8 nM

UAAAGUAGGUCCAAUAAAACUACAUGUGAAGGAGCGCGCGAAAGCGCAGGUAGGUCGCACAUGAGGAUCACCCAUGUCCUACAAU [MAT - Exclusion Arginine A - Mod of Eli - D17]
apparent KD of MS2 coat protein (input ligand: arginine 13.2 mM): 42.6 nM
apparent KD of MS2 coat protein (input ligand: none): 51.5 nM
apparent KD of MS2 coat protein [1]: 69.1 nM
apparent KD of MS2 coat protein [3]: 68.2 nM
apparent KD of MS2 coat protein [2]: 43 nM

UAACAUGAGGAUCACCCAUGUAUAGUCGAUACCAGCUCAAGGGAGAGCCCUUGGCAGCGACACUGGUAUCCAUGGGUGUGGAUAC [(Ms2)-(Theo)-(T)'-(M)'-(T)''_Design3]
apparent KD of MS2 coat protein (input ligand: arginine 13.2 mM): 76.9 nM
apparent KD of MS2 coat protein [1]: 86.2 nM
apparent KD of MS2 coat protein [2]: 69.8 nM

UAACAUGAGGCGGCCGCCACUCAACAUGAGGAUCACCCAUGUAUGUGUAAACAUGAGGAUCACCCGAGGACCGGGCCCUUGUAAU [Same State Tryptophan B 4]
apparent KD of MS2 coat protein (input ligand: arginine 13.2 mM): 25.2 nM
apparent KD of MS2 coat protein (input ligand: none): 33.4 nM
apparent KD of MS2 coat protein [1]: 46.7 nM
apparent KD of MS2 coat protein [3]: 39.5 nM
apparent KD of MS2 coat protein [2]: 54.2 nM

UAACGGCACUGAAGGAGCGAGUUGACAAACAUGAGGAUCACCCAUGUUAUGGGUUGUUAAUCUCAGGUAGGUCGCAGUUGUCGUA [Same State Arginine B GF 20]
apparent KD of MS2 coat protein (input ligand: arginine 13.2 mM): 129 nM
apparent KD of MS2 coat protein (input ligand: none): 348 nM
apparent KD of MS2 coat protein [1]: 387 nM
apparent KD of MS2 coat protein [3]: 511 nM
apparent KD of MS2 coat protein [2]: 365 nM

UAAUAAGUACCGGUCCUCAGAUCCUCAUGUCGAGGACCGGUACGGCCGCCACUCGAAACAUGAGGAUCACCCAUGUAAUAAUAAU [#06 Exclusion Tryptophan A]
apparent KD of MS2 coat protein (input ligand: arginine 13.2 mM): 24.5 nM
apparent KD of MS2 coat protein [1]: 52.6 nM
apparent KD of MS2 coat protein [3]: 44.3 nM

UAAUCCGGUCCUCGAUAACAUGGGUGAAUACGAGGACCGGUACGGCCGCCACUCGAUAACAUGAGGAUCACCCAUGUAAUAAUAA [|T'-M'-Trp-Ms2|_Design15]
apparent KD of MS2 coat protein (input ligand: arginine 13.2 mM): 38.2 nM
apparent KD of MS2 coat protein [1]: 111 nM
apparent KD of MS2 coat protein [3]: 73.6 nM

UAAUGCAGGUCGGCCGCCACUACAACAUGAGGAUCACCCAUGUACAUGUUGUAGUACGGUAUGAGUAGGACCGGGACCUGCAUAA [Trp-Ms2-M'-T'-(MT)'_Design1]
apparent KD of MS2 coat protein (input ligand: arginine 13.2 mM): 213 nM
apparent KD of MS2 coat protein (input ligand: none): 299 nM
apparent KD of MS2 coat protein [1]: 154 nM
apparent KD of MS2 coat protein [3]: 594 nM
apparent KD of MS2 coat protein [2]: 787 nM

UAAUGUGAGAGAAGGAGCGGAGGUCUCGUUACAACAUGAGGAUCACCCAUGUAACGUACCGUCCAGGUAGGUCGCUCUCGGGCGC [lvacmullin]
apparent KD of MS2 coat protein (input ligand: arginine 13.2 mM): 17.4 nM
apparent KD of MS2 coat protein (input ligand: none): 13.2 nM
apparent KD of MS2 coat protein [1]: 24.4 nM
apparent KD of MS2 coat protein [3]: 17.2 nM
apparent KD of MS2 coat protein [2]: 15.2 nM

UAAUUUAUAGGGUAUAUCAGAUUAACUGAAGGAGCGUGGUAAUACACAGGUAGGUCGCAGAUGGAACAUGAGGAUCACCCAUGUU [JR_ExcArginiA_Sub016]
apparent KD of MS2 coat protein (input ligand: arginine 13.2 mM): 17.6 nM
apparent KD of MS2 coat protein (input ligand: none): 20 nM
apparent KD of MS2 coat protein [1]: 27 nM
apparent KD of MS2 coat protein [3]: 25.7 nM
apparent KD of MS2 coat protein [2]: 21.2 nM

UACAUAUGCCGAAGGAGCGCGAGAAGCAAAGCUUCAUUCCUCACAUGAGGAUCACCCAUGUCGCAGGUAGGUCGCGGCAUAUGUU [#15 Exclusion - Arginine B]
apparent KD of MS2 coat protein (input ligand: arginine 13.2 mM): 23.7 nM
apparent KD of MS2 coat protein (input ligand: none): 21.8 nM
apparent KD of MS2 coat protein [1]: 42 nM
apparent KD of MS2 coat protein [3]: 28.2 nM
apparent KD of MS2 coat protein [2]: 24 nM

UACAUAUGCCGAAGGAGCGUGAGAUGCAAAGCAUCAUUCCUCACAUGAGGAUCACCCAUGUCACAGGUAGGUCGCGGCAUAUGUU [ArgBX 3]
apparent KD of MS2 coat protein (input ligand: arginine 13.2 mM): 94.3 nM
apparent KD of MS2 coat protein (input ligand: none): 90 nM
apparent KD of MS2 coat protein [1]: 115 nM
apparent KD of MS2 coat protein [3]: 117 nM
apparent KD of MS2 coat protein [2]: 96.9 nM

UACCCAUGAGUUGGAAAAGCUCAUGGGUAUCGAGGACCGGUACGGCCGCCACUCGGCUGUACAUGAGGAUCACCCAUGUCAGGGU [#1 Same State - Tryptophan A Attempt #24 (HarryS)]
apparent KD of MS2 coat protein (input ligand: arginine 13.2 mM): 29.9 nM
apparent KD of MS2 coat protein [1]: 367 nM
apparent KD of MS2 coat protein [3]: 721 nM

UACCUUAACACGGCCGCCACUCUCUAAUAGGAUCAUGGUACCGCACAUGAGGAUCACCCAUGUUUGAGGACCGGGUGUUAUGAAG [theeternabot_sameState_MS2_Trp_B_24]
apparent KD of MS2 coat protein (input ligand: arginine 13.2 mM): 14.8 nM
apparent KD of MS2 coat protein [1]: 25 nM
apparent KD of MS2 coat protein [3]: 20.2 nM

UACUUGCUGACGGCCGCCACUAGAACAUGAGGAUCACCCAUGUACGGCGGCCGUCAUGGGUGGACUAGGACCGGGUCAGCAAGAU [(Trp1)-(Ms2)-(T)'-(M)'-(Trp2)_Design6]
apparent KD of MS2 coat protein (input ligand: arginine 13.2 mM): 10.7 nM
apparent KD of MS2 coat protein (input ligand: none): 12 nM
apparent KD of MS2 coat protein [1]: 20.5 nM
apparent KD of MS2 coat protein [3]: 13.9 nM
apparent KD of MS2 coat protein [2]: 13.2 nM

UACUUGCUGACGGCCGCCACUAGAACAUGAGGAUCACCCAUGUAUGGCGGCCGAAUCCUCAUGACUAGGACCGGGUCAGCAAGAU [(Trp1)-(Ms2)-(T)'-(M)'-(Trp2)_Design2]
apparent KD of MS2 coat protein (input ligand: arginine 13.2 mM): 8.18 nM
apparent KD of MS2 coat protein (input ligand: none): 8.09 nM
apparent KD of MS2 coat protein [1]: 12.5 nM
apparent KD of MS2 coat protein [3]: 8.75 nM
apparent KD of MS2 coat protein [2]: 8.22 nM

UACUUGCUGACGGCCGCCACUAGAACAUGAGGAUCACCCAUGUAUGGCGGCCGUCAUGGGUGGACUAGGACCGGGUCAGCAAGAU [(Trp1)-(Ms2)-(T)'-(M)'-(Trp2)_Design7]
apparent KD of MS2 coat protein (input ligand: arginine 13.2 mM): 11.4 nM
apparent KD of MS2 coat protein [1]: 14.6 nM
apparent KD of MS2 coat protein [3]: 11.7 nM

UAGACGGCCGGAAGGAGCGGUACAUGAGGAUCACCCAUGUAUCUCUGGGCAUCCGUAGAGUGCCAGGUAGGUCGCCGGUUGCGGG [XArg-B22]
apparent KD of MS2 coat protein (input ligand: arginine 13.2 mM): 12.3 nM
apparent KD of MS2 coat protein (input ligand: none): 11 nM
apparent KD of MS2 coat protein [1]: 13.8 nM
apparent KD of MS2 coat protein [3]: 11.5 nM
apparent KD of MS2 coat protein [2]: 11.4 nM

UAGCAUAGUACGGCCGCCACUCCUGGUUCCCGGCCGUGUGUAAGACAUGAGGAUCACCCAUGUAGGAGGACCGGGUAUCGCUUGC [theeternabot_sameState_MS2_Trp_B_22]
apparent KD of MS2 coat protein (input ligand: arginine 13.2 mM): 12.5 nM
apparent KD of MS2 coat protein [1]: 20.2 nM
apparent KD of MS2 coat protein [3]: 15.6 nM

UAGCGAUAAUCUGAUACCAGACGUGUGCUCUCCUCAGACAUGAGGAUCACCCAUGUAUGCGUCCCUUGGCAGCAGAGUGAGGAGA [Theo B Ex t5]
apparent KD of MS2 coat protein (input ligand: arginine 13.2 mM): 19.6 nM
apparent KD of MS2 coat protein (input ligand: none): 19.6 nM
apparent KD of MS2 coat protein [1]: 26.8 nM
apparent KD of MS2 coat protein [3]: 115 nM
apparent KD of MS2 coat protein [2]: 18.6 nM

UAUAUAGAAGGAAGUCAUAUAGAUGCAGAAGGAGCGUAGGAAACUACAGGUAGGUCGCUGAGGUACAUGAGGAUCACCCAUGUAG [SSArg A #15 Slice of Pi]
apparent KD of MS2 coat protein (input ligand: arginine 13.2 mM): 24.7 nM
apparent KD of MS2 coat protein (input ligand: none): 32.3 nM
apparent KD of MS2 coat protein [1]: 44.7 nM
apparent KD of MS2 coat protein [3]: 24.9 nM
apparent KD of MS2 coat protein [2]: 29.4 nM

UAUAUAUACUCGGCCGCCACUGAGAGAGUCAUGUAAACAUGAGGAUCACCCAUGUAAUAUAUAUACAGGACCGGGAGUAUAUUAA [4.A]
apparent KD of MS2 coat protein (input ligand: arginine 13.2 mM): 19.1 nM
apparent KD of MS2 coat protein [1]: 17.3 nM
apparent KD of MS2 coat protein [3]: 15.8 nM

UAUAUAUAUCACUAACUGUUCUUGAGGUCUCGAGGACCGGUACGGCCGCCACUCGGGCCGCCUCACAUGAGGAUCACCCAUGUCC [XTryp A #3]
apparent KD of MS2 coat protein (input ligand: arginine 13.2 mM): 38.9 nM
apparent KD of MS2 coat protein [1]: 94.8 nM
apparent KD of MS2 coat protein [3]: 89.4 nM

UAUAUAUGGAUGGAUACCAGCAGAGAAAACGUUUAUCCUAACAUGAGGAUCACCCAUGUAUGCCCUUGGCAGCUGUUUAUAUAUA [8.J]
apparent KD of MS2 coat protein (input ligand: arginine 13.2 mM): 21 nM
apparent KD of MS2 coat protein [1]: 33.9 nM
apparent KD of MS2 coat protein [2]: 24.3 nM

UAUCCACAUGAGGAUCACCCAUGUAGGGAAGGAGCGGUGAUUUCACCAGGUAGGUCGCCUUACUGAGGAGAGCCGGUGGAAUCGU [Exclusion - Arginine A (Freestyle 31)]
apparent KD of MS2 coat protein (input ligand: arginine 13.2 mM): 22.3 nM
apparent KD of MS2 coat protein (input ligand: none): 24.9 nM
apparent KD of MS2 coat protein [1]: 31.9 nM
apparent KD of MS2 coat protein [3]: 32.9 nM
apparent KD of MS2 coat protein [2]: 31.6 nM

UAUCCACAUGAGGAUCACCCAUGUUAGGAAGGAGCGGUGAAUGAACCAGGUAGGUCGCCUAGGUGAGGACCAUCUAUGGAUUCGU [Exclusion - Arginine A (Freestyle 12)]
apparent KD of MS2 coat protein (input ligand: arginine 13.2 mM): 12.8 nM
apparent KD of MS2 coat protein (input ligand: none): 13.3 nM
apparent KD of MS2 coat protein [1]: 19.8 nM
apparent KD of MS2 coat protein [3]: 14.6 nM
apparent KD of MS2 coat protein [2]: 13.1 nM

UAUCGUCAGACGGCCGCCACUAGAACAUGAGGAUCACCCAUGUACCCGGUCCAUUCCUCAUUAACUAGGACCGGGUCUGACGAAU [(Trp1)-(Ms2)-(T)'-(M)'-(Trp2)_Design13]
apparent KD of MS2 coat protein (input ligand: arginine 13.2 mM): 88.3 nM
apparent KD of MS2 coat protein [1]: 129 nM
apparent KD of MS2 coat protein [3]: 131 nM
